Substitutions are numbered along the chain they refer to.
Columns and labels:
Assay in all cases: SPR, Biacore T200, 25 C; FVII(a) variant captured on anti-Gla Ab 4F6, mAb0842(OA) injected
[1] = molecular target: T1, FVII(a) variant N184A (human, UniProt P08709 61-466)
T1 construct: hFVII alanine variant in cell culture supernatant
T1 sequence: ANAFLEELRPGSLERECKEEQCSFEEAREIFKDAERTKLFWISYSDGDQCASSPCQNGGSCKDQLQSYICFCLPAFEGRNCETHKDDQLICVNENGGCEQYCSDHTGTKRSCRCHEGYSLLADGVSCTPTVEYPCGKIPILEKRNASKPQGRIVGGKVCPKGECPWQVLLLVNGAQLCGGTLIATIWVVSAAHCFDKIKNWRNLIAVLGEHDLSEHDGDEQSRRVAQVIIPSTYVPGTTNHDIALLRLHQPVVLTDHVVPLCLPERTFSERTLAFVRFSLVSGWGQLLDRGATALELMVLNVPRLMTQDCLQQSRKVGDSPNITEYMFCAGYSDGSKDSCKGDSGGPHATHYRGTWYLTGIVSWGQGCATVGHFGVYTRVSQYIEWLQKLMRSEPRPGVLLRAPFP
Experimental: (§1) The running buffer was prepared by diluting 10-fold the 10×HBS-P buffer (supplied by GE Healthcare) and supplemented with 1 mg/ml BSA and 5 mM CaCl2 to give 10 mM HEPES, 150 mM NaCl, 0.05% v/v Polysorbate 20, pH 7.4, 5 mM CaCl2, 1 mg/ml bovine serum albumin (BSA). […] Regeneration of the chip was achieved using 10 mM HEPES, 150 mM NaCl, 20 mM EDTA, 0.05 v/v Polysorbate 20, pH 7.4. Binding data were analysed according to a 1:1 Kinetic model and steady state analysis using BiaEvaluation 4.1 supplied by the manufacturer (Biacore AB, Uppsala, Sweden). Wherever possible, ka, kd and KD values from 1:1 kinetic fitting model are reported. […] An amino acid residue is considered a hot-spot residue if substitution of that amino acid residue with alanine results in an affinity reduction of ten (10) fold or more relative to the wild type.

[2] = molecular target: T2, FVII(a) variant E265A (human, UniProt P08709 61-466)
T2 construct: hFVII alanine variant in cell culture supernatant
T2 sequence: T1 sequence with A184N, E265A
Experimental: as §1

[3] = molecular target: T3, FVII(a) variant M391A (human, UniProt P08709 61-466)
T3 construct: hFVII alanine variant in cell culture supernatant
T3 sequence: T1 sequence with A184N, M391A
Experimental: as §1

[4] = molecular target: T4, FVII(a) variant S119A (human, UniProt P08709 61-466)
T4 construct: hFVII alanine variant in cell culture supernatant
T4 sequence: T1 sequence with S119A, A184N
Experimental: as §1

[5] = molecular target: T5, FVII(a) variant V131A (human, UniProt P08709 61-466)
T5 construct: hFVII alanine variant in cell culture supernatant
T5 sequence: T1 sequence with V131A, A184N
Experimental: as §1

B1: mAb0842(OA) (antibody, human IgG4 S228P, kappa)
heavy: QVQLQESGPGLVKPSQTLSLTCTVSGYSISSDSAWSWIRQPPGKGLEWIGYIQYSGSTNYNPSLKSRVTISRDTSKNQFSLKLSSVTAADTAVYYCARSVNYYGNSFAVGYWGQGTLVTVSSASTKGPSVFPLAPCSRSTSESTAALGCLVKDYFPEPVTVSWNSGALTSGVHTFPAVLQSSGLYSLSSVVTVPSSSLGTKTYTCNVDHKPSNTKVDKRVESKYGPPCPPCPAPEFLGGPSVFLFPPKPKDTLMISRTPEVTCVVVDVSQEDPEVQFNWYVDGVEVHNAKTKPREEQFNSTYRVVSVLTVLHQDWLNGKEYKCKVSNKGLPSSIEKTISKAKGQPREPQVYTLPPSQEEMTKNQVSLSCAVKGFYPSDIAVEWESNGQPENNYKTTPPVLDSDGSFFLVSRLTVDKSRWQEGNVFSCSVMHEALHNHYTQKSLSLSLGK
light: EIVLTQSPATLSLSPGERATLSCRASQGISDYLHWYQQKPGEAPRLLIKYTSQPATGIPARFSGSGSGTDFTLTISSLEPEDFAVYYCQNGHSFPLTFGQGTKLEIKRTVAAPSVFIFPPSDEQLKSGTASVVCLLNNFYPREAKVQWKVDNALQSGNSQESVTEQDSKDSTYSLSSTLTLSKADYEKHKVYACEVTHQGLSSPVTKSFNRGEC
chain: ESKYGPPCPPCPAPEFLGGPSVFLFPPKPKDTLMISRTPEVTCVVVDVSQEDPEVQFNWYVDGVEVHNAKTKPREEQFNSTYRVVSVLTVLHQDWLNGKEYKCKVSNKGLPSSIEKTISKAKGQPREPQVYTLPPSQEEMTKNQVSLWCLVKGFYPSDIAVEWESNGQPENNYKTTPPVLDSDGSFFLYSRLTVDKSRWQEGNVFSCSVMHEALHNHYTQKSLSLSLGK
notes: also called monovalent humanized 11F2 antibody; one-armed anti-FVII(a) antibody
- Kd [1]: 1910 pM
- Kd [2]: 980 pM
- Kd [3]: 250 pM
- Kd [4]: 310 pM
- Kd [5]: 5220 pM
